± gives the uncertainty stated by the source.

The data set in a line: amyloid nucleation score (Sup35N fusion, yeast selection) (log enrichment); library NNK2; higher = more nucleation; inactive = no reads after selection. The procedure, abridged:
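The nucleation score is the log enrichment of output over input reads, calculated with DiMSum and centred on the mode score of non-aggregating sequences. Sequences with under 100 input reads were excluded. Reads came from Illumina sequencing of plasmid inserts from psi-negative yeast expressing Sup35N fused to peptides of 20 random codons, induced 24 hours with 100 μM copper sulfate and grown 7 days at 30°C without adenine and uracil.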

On to LFVKTLGFLAVCASQ, for which the amyloid nucleation score worked out at 0.609 ± 0.64.
In the case of HKWKII it was -1.55 ± 0.75; in that of VKGISWGLRFS, “inactive”; in that of ILASCTSRCFESEVRGTSFA, 0.568 ± 0.39.
In the case of NYTWSNTRLNYPLRVNATNH it was -1.01 ± 1.1; in that of GVLRENGN, 0.284 ± 1.1; in that of GDTIVSSGKVSCQRHASFLI, 0.959 ± 0.74.
In the case of DRSSS it was 0.447 ± 0.31; in that of LFSTTRFVAHKAGR, 0.47 ± 0.33.
YPEDEFFQHRRWKRILSWDV: the amyloid nucleation score result was “inactive”.
In the case of LFWIGWLRRRKKGIGVANKG it was 0.001 ± 0.49; in that of CMNTISVLSECASTRQTC, -0.068 ± 0.31; in that of DYVTVVGIILVLLLLNFNLG, “inactive”.
In the case of DNRKDSFMLHSFGTKVSGHK it was 0.918 ± 0.37.
In the case of YCTNFYVEAGAIGS it was -0.682 ± 0.42.
GNRLRIKLL returned an amyloid nucleation score of -0.2 ± 0.27.
In the case of EVDSVNVSLCVS it was -0.796 ± 0.64.
In the case of IFFVRACSKAGFVQPLSIFY it was -0.113 ± 0.65; in that of CMGNSYFMFNSYANFKNNWA, 5.54 ± 0.093; in that of YCVTTVGARCLVKFHHLDSG, 2.11 ± 0.15.
In the case of EKVDCSVLAGNNWTWVNISL it was 6.7 ± 0.079.
The substance SFSRSGFCHMCSLSALTGLR had an amyloid nucleation score of -0.196 ± 1.1.
In the case of VLLRVRRCYSVPTFRVWSAT it was 1.39 ± 0.18.
In the case of IRTDSTNMCF it was -0.647 ± 1.1; in that of VSSHNLMPNRNWMFETQLSW, -0.297 ± 1.1; in that of MFNYINYYSYHFEFSKCFVR, 2.26 ± 0.14.
In the case of PIGLYRSMATQVNCC it was 3.71 ± 0.094.
As to VNEIWYDLDYEKVGFV, the amyloid nucleation score worked out at 2.81 ± 0.074.
In the case of KSDPAVIPY it was 0.713 ± 0.45; in that of SLLTCLSGMHGWVSIT, -0.13 ± 0.27; in that of KIEVRLRVTYGYSSLVQAVG, -0.326 ± 1.
In the case of SQRLIRWNCLNAGTIMPSVV it was 0.089 ± 1.1; in that of YCGKTIQCSRRAPTAEDLGM, 2.76 ± 0.12.
In the case of KKKYACRPAVRFLSIYCWFA it was 0.406 ± 0.4; in that of SNYLAPYNNSDATYCG, -0.361 ± 0.54.
As for LLHSWSYRCV, the amyloid nucleation score came out at 0.039 ± 0.77.
In the case of RARFWINGFRVL it was “inactive”.
In the case of VSHRIFGGNMWPGKSHECMC it was “inactive”.
In the case of GDSGFKLI it was -0.105 ± 0.39.
As for VSIIRIKYSNQAISVRNSDS, the amyloid nucleation score is 4.155 ± 0.038.
In the case of PTSFLKSIVGVIWISANLSR it was 0.696 ± 0.43; in that of HRLFSY, -0.776 ± 0.63; in that of TCAQYKHGTTVDSNLRSTY, -0.515 ± 0.48.
In the case of WIVVSSIDSFFCVSSSPQFR it was “inactive”; in that of TYMDNFFVSCGMLKQVYASV, -0.223 ± 0.16; in that of PLSPFTHGLSQYIALEIDGQ, -0.254 ± 0.63.
In the case of RVFNLNKKMNFSTISG it was -0.942 ± 1.1; in that of LRSCKALGGGVTRPTGYS, 0.709 ± 0.47; in that of YFRSCDKCGAYEANHEFKTT, “inactive”.
The substance TLRIGDFPWISWSEGVWVGG came in with an amyloid nucleation score of 0.244 ± 0.65.
In the case of GKRVLRWTNWMAR it was 1.83 ± 0.29; in that of ARCDCGFVRGGNCVVQYCLS, 7.529 ± 0.04.
In the case of LYWRKTVITIEWSCSGGNLR it was 0.278 ± 0.27; in that of RYSITGTYYIA, 3.63 ± 0.057; in that of GIVFIYMNRPSFVVDDLTAG, 7.27 ± 0.078.
In the case of VRVDGPTLWCTQVRLSGERA it was 0.951 ± 0.17.
DPFSHGEASEWAHLIVSTCT: the amyloid nucleation score was 0.408 ± 0.22.
Substance QSESVVRHWGMRWR came in with an amyloid nucleation score of 0.729 ± 0.29.
In the case of YWVYAGIGVRMCNRVYNNLR it was 0.336 ± 0.3.
For the substance GSVGFVQYAVGNSMTSGIMV, the amyloid nucleation score was -0.307 ± 0.2.
In the case of SISAKFSSTSWGGG it was 6.444 ± 0.046; in that of RALRVRILYCEARRMCFMAN, 0.236 ± 1.1; in that of SFINVLDQRVILRPPTRVFV, 0.494 ± 0.65.
In the case of FLVLFASVPKEVPLAYRVVK it was -0.898 ± 0.61; in that of EYRGSVWLAGS, -0.379 ± 0.29; in that of IITIIKF, 7.164 ± 0.03.
Take VFFFKRLYTKVCF: the amyloid nucleation score entry is “inactive”.
On to IQDWHVES, for which the amyloid nucleation score was -0.075 ± 0.46.
Regarding LEPYLS, the amyloid nucleation score is -0.48 ± 0.49.
In the case of NAYWNDGFVQAFGRGK it was -0.644 ± 0.63.
In the case of TLFVKTYMSVFYIIACSSC it was -0.218 ± 0.64.
In the case of QDFCSEGCLEDVSSLY it was -1.37 ± 0.49; in that of CTCNLWYTLMCAFHASRLVH, 0.327 ± 0.34.
For the substance LAQLQ, the amyloid nucleation score is -0.504 ± 0.78.
In the case of WHGKVGRTAWCLGMLFYDVR it was 1.02 ± 0.2.
In the case of CGNISQVKEDLRMTTLIFRV it was “inactive”; in that of CVGSLQLHGVSRRCIRCWGR, 1.15 ± 0.4; in that of PWYGSQGNTKSCYSFVMSLP, 0.06 ± 0.34.
In the case of CPMPITRSAVFACTITCSVA it was 5.99 ± 0.079; in that of YKRCYIKIEWFQMCFNVVTR, “inactive”; in that of SLNFFIMSKSSTGVSSFLYV, 6.483 ± 0.038.
On to IRAGAWLEICRSAVVSGPSF, for which the amyloid nucleation score was -0.073 ± 0.33.
In the case of SFRLISRVLRCNMIQ it was -0.881 ± 0.37; in that of SYRRKYSCRLESINTCAVLC, -0.302 ± 0.47.
In the case of NGWKYLYIWFPAICSCFMRG it was -0.213 ± 0.24.
Consider CYAGFCN, for which the amyloid nucleation score result is “inactive”.
In the case of SKEVAAGCSLGIRVVMFKR it was “inactive”.
In the case of CLFSILLVMIPASFYTAMWL it was -0.588 ± 1.1.
VFKRNQ came in with an amyloid nucleation score of 0.769 ± 0.41.
In the case of FIYSHYWWLWLYHTATVIPH it was -1.45 ± 0.62; in that of AEYPHAFFSDCACYHIPGSA, 0.586 ± 0.57.
In the case of GFPLLHTGILVSNLYMLRAR it was -0.536 ± 1.1; in that of ICVECSYVYMTGGKV, 3.79 ± 0.057.
In turn, RANGSSYEREVA returned an amyloid nucleation score of 0.819 ± 0.47.
In the case of SPVICRVRGGLFINMSEYNV it was “inactive”; in that of LGLNLTRDYLMLGKRLKCCR, -0.993 ± 0.78.
In the case of NLLWLFDV it was 0.19 ± 1.1; in that of DNELFPLYWNR, 0.309 ± 0.15; in that of SDINRVVGLPRTRLALRSKR, -0.447 ± 0.54.
In the case of ISGRLNRDGGSDKMSAEREG it was 1.25 ± 0.33; in that of VDTGEVNTF, 1.76 ± 0.086.
For PPNVLDCFNVL, the amyloid nucleation score was -0.501 ± 0.64.
In the case of GCKSGDQDLALRNGCRKQRS it was 0.594 ± 0.45; in that of RISLERGNDFVTWVVYMKWA, -0.081 ± 0.34.
In the case of YCGLFKGYVYRL it was -1.43 ± 0.55; in that of YNVMHRPGGWDFMYGNWMLG, 4.63 ± 0.063.
In the case of LCIGYFLV it was -1.62 ± 1.1.
Substance CNDGMTTSDYWWCSARLDPY yielded an amyloid nucleation score of 0.345 ± 0.2.
In the case of SMKNK it was 0.185 ± 0.4; in that of LAMTAAKIMDRFNGCSLKSF, 0.648 ± 0.74; in that of FYECNMSQVRDFPLHMYRYS, “inactive”.
For CGLNCVAGGREEDRVYVLSS, the amyloid nucleation score was determined as 0.088 ± 0.22.
Turning to IIRVSSCPCTNI, the amyloid nucleation score entry is “inactive”.
In the case of PSRMCSCCPLRGSCKDMACR it was 0.256 ± 0.18; in that of RAYPNLENFLLWRMSNSYLC, -0.542 ± 0.63; in that of LYIMDLFSTAWFDMLYVKGR, -1.45 ± 0.78.
In the case of NWDKKKGRDR it was “inactive”; in that of RVTNLIHQLRVPKIGKSGFA, 0.294 ± 0.23.
In the case of NMMCISSHGSTTSGFLRSSL it was 3.52 ± 0.062; in that of QKFVLSRPDLDRFYCSMDCM, -0.185 ± 0.63.
On to ISCNKIIDIKMWGWVCAIA, for which the amyloid nucleation score came to 8.729 ± 0.035.
IVFYVEVVLMAECLADVKRV had an amyloid nucleation score of 5.56 ± 0.081.
In the case of VWGHWPSRFSQQSRCN it was 0.185 ± 0.5.
In the case of EYSGLDVTDCQDT it was 0.44 ± 0.36; in that of NTTQAV, -0.249 ± 1.
In turn, CMISTDLKVTRALSTHKNCI came in with an amyloid nucleation score of 0.02 ± 0.56.
For the substance YRYPRCRVRLVS, the amyloid nucleation score is -0.822 ± 0.35.
In the case of GYVSRDSFVLYWPSRNDCLA it was 0.276 ± 0.22.
The substance AEMVSANRLSKCEMTIRLWD came in with an amyloid nucleation score of 3.64 ± 0.077.
In turn, DVCYCRKPTINALRWLMMYA yielded an amyloid nucleation score of -0.27 ± 1.1.
In the case of DFFMTPGTLGIGTLSNISFY it was “inactive”; in that of VVDGYYGFWVVSQEDISIYP, -0.094 ± 0.54.
With DQSFLF, the amyloid nucleation score was -0.039 ± 0.39.
In the case of KRARR it was 0.356 ± 0.4; in that of LLLNLRQGMTKIPIGFILLI, -0.64 ± 0.36.
In the case of MVAGITFTNASIWTYNK it was 3.63 ± 0.075.
With LLWPVA, the amyloid nucleation score came out at 0.386 ± 0.46.
In the case of RGYACCL it was -0.574 ± 0.48; in that of FDPSMSFNWCICSFELDWAG, 5.321 ± 0.032; in that of HVRHGESLFFANQA, -0.038 ± 1.1.

The values above are taken from the supplement of paper PMC12042874.
